Biological target: adt2_human SLC25A5 (UniProt P05141)
Sequence (P05141 whole entry): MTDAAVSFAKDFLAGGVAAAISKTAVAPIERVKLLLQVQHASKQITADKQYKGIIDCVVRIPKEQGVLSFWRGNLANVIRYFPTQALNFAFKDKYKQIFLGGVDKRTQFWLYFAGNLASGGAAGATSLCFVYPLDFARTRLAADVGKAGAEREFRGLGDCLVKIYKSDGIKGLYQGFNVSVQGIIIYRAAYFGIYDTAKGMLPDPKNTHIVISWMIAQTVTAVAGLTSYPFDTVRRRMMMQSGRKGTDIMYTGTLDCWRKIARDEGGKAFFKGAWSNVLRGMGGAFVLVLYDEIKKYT

Sequence of Cytoplasmic protein NCK2 (Homo sapiens), O43639 R311K (O43639 whole entry R311K): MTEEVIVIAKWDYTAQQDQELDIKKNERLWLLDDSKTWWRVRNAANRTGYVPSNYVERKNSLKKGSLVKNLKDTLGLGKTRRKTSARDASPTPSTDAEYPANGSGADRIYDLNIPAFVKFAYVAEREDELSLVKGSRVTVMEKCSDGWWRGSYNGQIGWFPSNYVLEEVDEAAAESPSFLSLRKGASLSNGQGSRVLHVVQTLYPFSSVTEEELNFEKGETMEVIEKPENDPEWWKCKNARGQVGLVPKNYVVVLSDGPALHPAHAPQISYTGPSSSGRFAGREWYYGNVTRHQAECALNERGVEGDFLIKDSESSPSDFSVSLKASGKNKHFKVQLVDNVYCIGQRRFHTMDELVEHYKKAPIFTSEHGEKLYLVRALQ

Substance: Cytoplasmic protein NCK2 (Homo sapiens), O43639 R311K
- effect of a mutation on the interaction: disrupting interaction
